Legend:
[1] = target: T1, human cysteine sulfinic acid decarboxylase (CSAD) (Homo sapiens, UniProt Q9Y600); assay: restoration of catalytic activity by equimolar PLP; absorption spectrum after dialysis; type: biochemical; conditions: covalent (Schiff base to Lys305 in PDB 2jis, not solved here); spectrum in 20 mM NaHEPES pH 7.5, 300 mM NaCl, 0.2 mM DTT, 5% glycerol
T1 construct: His6 and TEV site), tag kept (cleavage not mentioned); plasmid pNIC28-Bsa4; E. coli Rosetta(DE3); homodimer in crystal (PDB 2jis, solved by SGC)
T1 sequence (Q9Y600 1-493): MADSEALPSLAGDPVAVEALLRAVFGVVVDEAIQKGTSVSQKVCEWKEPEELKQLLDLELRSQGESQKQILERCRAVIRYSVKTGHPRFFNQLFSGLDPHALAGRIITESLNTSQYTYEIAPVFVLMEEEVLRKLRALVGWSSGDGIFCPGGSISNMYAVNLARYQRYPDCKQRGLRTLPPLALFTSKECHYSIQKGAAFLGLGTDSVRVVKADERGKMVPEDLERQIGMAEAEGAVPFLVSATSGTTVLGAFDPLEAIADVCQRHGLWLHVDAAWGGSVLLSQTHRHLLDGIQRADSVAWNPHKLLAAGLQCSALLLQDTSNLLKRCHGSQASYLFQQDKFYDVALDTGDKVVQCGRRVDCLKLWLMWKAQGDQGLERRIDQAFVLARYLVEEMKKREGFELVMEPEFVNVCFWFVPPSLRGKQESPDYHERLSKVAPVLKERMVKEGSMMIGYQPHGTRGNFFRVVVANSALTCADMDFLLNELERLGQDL

purified protein = substrate: N[C@@H](CS(=O)O)C(=O)O; assay: purified protein; type: biochemical, Homo sapiens; conditions: 20 mM potassium phosphate pH 7.2, 0.2 mM DTT, 0.1 mM EDTA, 0.06 mM PLP, about 20 °C (room temperature), 0.33 μM CSAD, CSA 0.06–1 mM

Cc1ncc(COP(=O)(O)O)c(C=O)c1O [PLP, pyridoxal-5′-phosphate]
restoration of catalytic activity by equimolar PLP; absorption spectrum after di [1]: addition of exogenous PLP—in equimolar concentration with respect to the protein—restored the holo-form

B1: human cysteine sulfinic acid decarboxylase (CSAD) (Homo sapiens) (protein)
chain: MADSEALPSLAGDPVAVEALLRAVFGVVVDEAIQKGTSVSQKVCEWKEPEELKQLLDLELRSQGESQKQILERCRAVIRYSVKTGHPRFFNQLFSGLDPHALAGRIITESLNTSQYTYEIAPVFVLMEEEVLRKLRALVGWSSGDGIFCPGGSISNMYAVNLARYQRYPDCKQRGLRTLPPLALFTSKECHYSIQKGAAFLGLGTDSVRVVKADERGKMVPEDLERQIGMAEAEGAVPFLVSATSGTTVLGAFDPLEAIADVCQRHGLWLHVDAAWGGSVLLSQTHRHLLDGIQRADSVAWNPHKLLAAGLQCSALLLQDTSNLLKRCHGSQASYLFQQDKFYDVALDTGDKVVQCGRRVDCLKLWLMWKAQGDQGLERRIDQAFVLARYLVEEMKKREGFELVMEPEFVNVCFWFVPPSLRGKQESPDYHERLSKVAPVLKERMVKEGSMMIGYQPHGTRGNFFRVVVANSALTCADMDFLLNELERLGQDL
notes: His6 and TEV site), tag kept (cleavage not mentioned); plasmid pNIC28-Bsa4; E. coli Rosetta(DE3); homodimer in crystal (PDB 2jis, solved by SGC)
Km (purified protein): 0.20 ± 0.02 mM | kcat (purified protein): 5.6 ± 0.2 s⁻¹

Reference: PMC8153620, “A Novel, Easy Assay Method for Human Cysteine Sulfinic Acid Decarboxylase” (Life, 2021)
